Source: the supplement of paper PMC12042874
± gives the uncertainty stated by the source.

Assay: amyloid nucleation score (Sup35N fusion, yeast selection) (log enrichment); library NNK3; higher = more nucleation; inactive = no reads after selection
In short: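 The nucleation score is the log enrichment of output over input reads, calculated with DiMSum and centred on the mode score of non-aggregating sequences. Sequences with under 100 input reads were excluded. Reads came from Illumina sequencing of plasmid inserts from psi-negative yeast expressing Sup35N fused to peptides of 20 random codons, induced 24 hours with 100 μM copper sulfate and grown 7 days at 30°C without adenine and uracil.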

Row | Substance | amyloid nucleation score
1 | ALVVSTWYSPGDMDLTPLHW | inactive
2 | TTSLKTHVLPRNVFRFEPYM | inactive
3 | TYGTCVGQK | inactive
4 | VMSGAKPARSLFLSTLQHIS | inactive
5 | GRFKSGSLPFRRSGE | inactive
6 | VFSGIL | inactive
7 | GRTYSGYTGWRGVLGHDLVM | inactive
8 | CRRVMVILMH | inactive
9 | FLLERLSV | inactive
10 | RESVTSPILILSWEGISRCH | inactive
11 | HRINWRIHTTYISTYWKKCM | inactive
12 | FDIFQGDINLHFLDVNITR | 0.397 ± 0.75
13 | FGTMSSGYAGGNKKFHPHRY | inactive
14 | TFRLILILRTSI | 0.898 ± 0.16
15 | SDRARRC | 0.163 ± 0.98
16 | HKLVFEHRLLVGPRNVDIFL | inactive
17 | YVSLVSLCMCIRLQGEFLYG | 1.24 ± 0.089
18 | LLKSGYYKGGFVKGAIRFRE | inactive
19 | SNCTLRE | inactive
20 | GTPYCICALSMHSTWDCN | 1.64 ± 0.081
21 | DFIRRVHYLKLSVWDVMTMR | inactive
22 | HLYYAP | inactive
23 | ERGGSTFCSTYFTVLKHRSG | inactive

Row | Substance | amyloid nucleation score
24 | YSKSLCVFKSICIELDF | 2.08 ± 0.062
25 | HFSYKSKCVGGRFLNDIDVY | inactive
26 | GVSSCFWSSFEQKFMKLSSV | inactive
27 | STRFMVIFDGISSVIGAIYG | inactive
28 | VLPENIILNFIQMSDNRFLL | 1.8 ± 0.072
29 | KPRVMFMISARVFVNYRICS | inactive
30 | RVERICDNVSSC | -0.577 ± 1
31 | EMLGHHVGSLINRRVITVLR | inactive
32 | KYLAFLQLCGAPMYLWTPPI | 0.757 ± 0.3
33 | PTNLYCHRMGEVSVYCRNLR | inactive
34 | WAGLHRVRFES | -0.26 ± 0.42
35 | SVNIMRSLIWH | inactive
36 | AANPFFTIYHLVRSYNVCRW | inactive
37 | AGVDWQILV | inactive
38 | LSNDYCLRWVFMFKVMIRCD | inactive
39 | LLCYWSLA | inactive
40 | NWPGMLFNLSLVERRSWRRN | inactive
41 | CSRSAENNFMMNLLNTIRVL | inactive
42 | CTSESVSYNMDRTKCQMYLT | inactive
43 | NLCIWPVTDAHLSLMHYLTP | inactive
44 | LVFRIN | inactive
45 | IAVCHLFLQYLCSRSTFMTL | inactive
46 | IIHEFFSTQLILYDCIDRWF | inactive

Row | Substance | amyloid nucleation score
47 | FSPCISDCGVDESIKVLRKM | inactive
48 | SPYNPHAFVTYSFCVYKD | 1.88 ± 0.098
49 | RGINDDSPF | inactive
50 | GKGCYLVVCDYTTCTKFLNM | inactive
51 | LRLNKLCEVFAPLTSVLAGT | inactive
52 | SDCKMISHFGEVINILSYKI | inactive
53 | SIFLGLRSRQLSFISLLEDG | inactive
54 | LLSFLTVRLCVFRTYFW | inactive
55 | SSIHH | inactive
56 | AAVSGDVTM | inactive
57 | TLLLAMNDVTSRLL | inactive
58 | YRVVC | -0.543 ± 1.5
59 | YLSASYIVYFIITEYYSYIF | inactive
60 | MMSFNVPLNAWVLSEFDTTY | inactive
61 | GNCTSVLDPSELVVYHCEGS | inactive
62 | ARWNAI | inactive
63 | TRYLSSFISYGEDSMHVFCG | inactive
64 | TVFMYRRVFSIRWG | inactive
65 | SYVWYRNGM | inactive
66 | SSTNSYTSSLVSVSLVGDGA | inactive
67 | YYLVDRWREFVGYRKKDCVA | inactive
68 | ILPSYDLFEVVWLVRAD | inactive
69 | TCTGCTSVTL | inactive

Row | Substance | amyloid nucleation score
70 | VYNGSFWRVNLVNF | 1.09 ± 0.095
71 | LGMSYVYTTGLQKQAASQ | inactive
72 | YNCGHLNYGIVNFLFYVWLI | inactive
73 | YGDEASPLSFCIDHEDRVKV | inactive
74 | TDMMMFICE | inactive
75 | ESVGLISWFRVPIYSN | inactive
76 | RDLVPLDDRA | inactive
77 | IGLRLVATLIDLRNADIGYG | inactive
78 | FNILSLSRTSNYPRHCLFRL | inactive
79 | LRRLELIGLECNLTGSRAVP | inactive
80 | VIDFYVEPCLIYGAPPCWLH | 0.606 ± 0.38
81 | HFLHYRPTGNHRLFWIRKDY | inactive
82 | IALSVDYLRFIFKNHSA | -0.464 ± 0.66
83 | GKTNNLLSFFSKTPLTFSCL | inactive
84 | YLDYSFREFCRMNQ | inactive
85 | RMRSWMGCGRHCLWRHLEEL | inactive
86 | QFHYYVLMIRSVIPFIALWK | inactive
87 | DISSLR | inactive
88 | TWILFFVN | 1.78 ± 0.062
89 | VDNIVVVCCFKDNCLSKG | 1.85 ± 0.09
90 | IEPIECTMA | inactive
91 | SFITIVIVSVGMRSLVLHRL | inactive
92 | GLERLMDPLGNHRVRGDRVG | inactive

Row | Substance | amyloid nucleation score
93 | YFVTFVYTKLLCNVRSLL | 0.578 ± 0.12
94 | RFTMWRNDHC | 0.421 ± 0.38
95 | NSGTKQTLGYSSFRD | inactive
96 | MVQNLQNRYGSWSCKFGFQR | inactive
97 | FSIRDSTTLKVPEECLSTWI | inactive
98 | CELLCFTGLSDYNTGSGVRR | inactive
99 | KVSDKPHHKRGVGLDLMMMD | inactive
100 | FETGCW | inactive
101 | VRDIRAIL | -0.551 ± 1.1
102 | VVVSERVREMRDYNVLLRCT | inactive
103 | YWYIIYAMSGLWYSSVNRVD | inactive
104 | HTSPWVELPVGISRTCDEDR | inactive
105 | TTLMMGTEPGLDTRLSSLCY | inactive
106 | CMPHG | inactive
107 | MMIIL | inactive
108 | WVFRFRNQ | inactive
109 | SSPYDCSVNYLKNVSPRTLY | inactive
110 | RANVQDMTKISYVFTYTWYV | inactive
111 | VVMMFVVIYIYALRRPY | 0.143 ± 0.25
112 | SNACCGWAICCSPCGGKGVS | 1.45 ± 0.13
113 | NLLNSFIFSRLRRVEGGMFG | inactive
114 | GSRRWFEFFVPWLQLD | inactive
115 | QYHNQYHMIKRLYAFRARMG | inactive

Row | Substance | amyloid nucleation score
116 | VRYFSKSGGRNPNVGRVVPV | inactive
117 | NLRFVTREWCKTYQLI | inactive
118 | MSENLDKLKTFPPALE | inactive
119 | AVMYSCQYRDKWVEVAMVTS | inactive
120 | GGNVCRGVKIIVMWAMIFVM | inactive
121 | LFYGHVNLASYRVSNRSKTR | inactive
122 | SYPGRLYSSGYDCVYSNRSR | inactive
123 | VITVIFVSYYCIPVWYW | 1.81 ± 0.099
124 | WLGRTATQFNIC | inactive
125 | WTKKFRVMTACLLEWYVDEK | inactive
126 | CIVRIVQST | inactive
127 | IFNMSEYNKLECTLTLY | inactive
128 | MSSFLTPAGRFSRYFTFVCF | inactive
129 | ITMCRDFLLAPWPCLLQPSH | inactive
130 | LDCFCSPVKVTWH | 0.146 ± 0.21
131 | MISRSSNKGV | inactive
132 | AVLCELVQDMFSLGVYVCHE | 0.531 ± 0.32
133 | VHRWGYQCSWVEQ | inactive
134 | SPKAVSCNTFPIGYRISFFL | inactive
135 | QLRRCLEMARYSKARFRNCM | inactive
136 | CSRSSLLLVDWPMVGSDKLL | inactive
137 | SHGGYACTSLIMTLIPLLYM | inactive
138 | FFSIT | inactive

Row | Substance | amyloid nucleation score
139 | HVFSITLAVGTYLLTRLYSQ | 1.07 ± 0.1
140 | IILRTWVSTLQSNSAIEVTL | inactive
141 | DGDYL | inactive
142 | TKDRFFLKHTGRIMLGLRR | inactive
143 | MSFVSSRGVNKWQVETGLLE | inactive
144 | GCSWLFSSLCFLGDNALGST | inactive
145 | YYRGITMCT | inactive
146 | NCVRFFYASDLSNYTRA | inactive
147 | FFWLMDAPHPRRHVDERQLI | inactive
148 | HTCVD | inactive
149 | LNYTEASYSLTGHTISISTV | -0.156 ± 1.5
150 | LQDMPGNGFPVWVDISFSSY | inactive
151 | IVWTVFNALQPLGNALRVSV | inactive
152 | IFCYPQAQS | inactive
153 | YLSTL | inactive
154 | STKPFSYYCLRYHRTVTALL | inactive
155 | HTIRL | inactive
156 | ASCAWNGWTLIFLFYRCYFQ | inactive
157 | WSVQMNRITDSSLDCMMMH | inactive
158 | MRNCEIISWKKAQVLSYNSS | inactive
159 | YQNILLAYYDWVVLYQ | inactive
